Numbered stars: 1 amine (or outer) side, 2 acyl side, 3 side chain; on linkers, the order of the positions; unused ones are H or OH. Bridge positions count the residues as written; N and C are the ends. * marks the point of attachment. C20 diacid = O=C(O)CCCCCCCCCCCCCCCCCCC(=O)*; γGlu = O=C(O)[C@H](CCC(=O)[*:2])N[*:1]
T1: human amylin 3(a) receptor (human calcitonin receptor + RAMP-3) (human, UniProt P30988 25-474; O60896 24-148, limits assumed)
T1 sequence (looked up) 1: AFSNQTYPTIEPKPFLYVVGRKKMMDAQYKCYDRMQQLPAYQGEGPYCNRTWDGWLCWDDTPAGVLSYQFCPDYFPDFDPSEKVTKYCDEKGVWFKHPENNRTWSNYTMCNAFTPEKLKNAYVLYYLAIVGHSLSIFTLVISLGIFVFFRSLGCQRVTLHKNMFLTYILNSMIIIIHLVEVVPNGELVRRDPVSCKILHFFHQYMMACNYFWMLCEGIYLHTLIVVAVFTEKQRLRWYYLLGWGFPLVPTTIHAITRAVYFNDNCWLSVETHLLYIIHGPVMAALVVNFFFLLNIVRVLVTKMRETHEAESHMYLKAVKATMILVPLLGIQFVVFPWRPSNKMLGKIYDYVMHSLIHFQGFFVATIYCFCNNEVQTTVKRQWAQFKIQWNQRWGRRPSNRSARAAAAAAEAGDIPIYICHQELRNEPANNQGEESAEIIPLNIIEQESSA
T1 sequence (looked up) 2: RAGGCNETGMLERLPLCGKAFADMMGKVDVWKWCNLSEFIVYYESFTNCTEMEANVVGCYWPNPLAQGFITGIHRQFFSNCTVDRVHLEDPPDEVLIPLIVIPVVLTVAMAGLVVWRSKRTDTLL

T2: human calcitonin receptor (human, UniProt P30988 25-474)
T2 sequence (looked up): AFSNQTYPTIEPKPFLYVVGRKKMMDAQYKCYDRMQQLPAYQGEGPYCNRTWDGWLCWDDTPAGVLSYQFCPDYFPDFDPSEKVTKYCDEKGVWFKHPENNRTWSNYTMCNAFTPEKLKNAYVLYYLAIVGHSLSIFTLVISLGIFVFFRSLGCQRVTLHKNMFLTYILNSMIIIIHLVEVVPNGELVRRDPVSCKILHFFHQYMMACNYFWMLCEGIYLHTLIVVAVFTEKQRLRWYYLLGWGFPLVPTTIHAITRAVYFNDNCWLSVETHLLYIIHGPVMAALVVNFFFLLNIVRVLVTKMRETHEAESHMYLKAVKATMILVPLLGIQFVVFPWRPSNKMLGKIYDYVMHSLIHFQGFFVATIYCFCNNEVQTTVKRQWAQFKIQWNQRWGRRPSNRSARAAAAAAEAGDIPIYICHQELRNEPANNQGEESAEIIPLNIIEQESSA


How the values were obtained:
[1] = target: T1, human amylin 3(a) receptor (human …); assay: cell-based or functional assay
[2] = target: T2, human calcitonin receptor; assay: cell-based or functional assay
[3] = target: T1, human amylin 3(a) receptor (human …); assay: SPA competition binding, membranes of BHK cells with human calcitonin receptor + RAMP-3, displacement of 125I-rat amylin (Assay V)
Protocol: The binding assay was performed using scintillation proximity assay (SPA) beads (RPNQ0001) from PerkinElmer and cell membranes from the Amylin 3(a)/CRE-luc cells (as described in Assay (II)) were used. Membranes were prepared in the following way; the cells were rinsed with PBS and incubated with Versene for approximately 5 min before harvesting. The cells were flushed with PBS and the cell-suspension was centrifuged for 5 min at 1000 rpm. Cells were homogenized (ultrathurrax) in a buffer containing 20 mM Na-HEPES and 10 mM EDTA (pH 7.4) and centrifuged at 20.000 rpm for 15 min. The resulting pellet was resuspended, homogenized and centrifuged (20.000 rpm, 15 min) in a buffer containing 20 mM Na-HEPES and 0.1 mM EDTA (pH 7.4, buffer 2). The resulting pellet was resuspended in buffer 2 and protein concentration was measured (BCA protein Assay, Pierce). The homogenate was kept cold during the whole procedure. The membranes were kept at −80° C. until use. The assay was performed in a 384 well Optiplate (PerkinElmer) in a total volume of 40 ul. Membranes were mixed with SPA beads. Final concentration of membranes 35 ng/μL final and SPA beads was 0.05 mg/well. Test-compounds were dissolved in DMSO and further diluted in assay buffer (50 mM Hepes, pH 7.4, 1 mM CaCl2, 5 mM MgCl₂, 0.1% OA and 0.02% Tween20). […] The final mixture was incubated with shaking at 400 rpm for 120 min at 25° C. prior to centrifugation (1500 rpm, 10 min). Samples were analyzed on TopCounter™ (Packard). The IC₅₀ was calculated using (one site binding competition analysis) GraphPad Prism5 as a measure of receptor affinity.

Binder | hAmylin-R funct. EC50 (pM) [1] [pM] | Ratio hCT/hAmylin funct. [2] | IC50 [3] [nM]
{C20 diacid-γGlu}-KCNTATCATQRLAEFLRHSSPNFGPILPPTNVGSNTP-NH2 (disulfide 2-7; SMILES CC[C@H](C)[C@H](NC(=O)[C@@H]1CCCN1C(=O)CNC(=O)[C@H](Cc1ccccc1)NC(=O)[C@H](CC(N)=O)NC(=O)[C@@H]1CCCN1C(=O)[C@H](CO)NC(=O)[C@H](CO)NC(=O)[C@H](Cc1c[nH]cn1)NC(=O)[C@H](CCCNC(=N)N)NC(=O)[C@H](CC(C)C)NC(=O)[C@H](Cc1ccccc1)NC(=O)[C@H](CCC(=O)O)NC(=O)[C@H](C)NC(=O)[C@H](CC(C)C)NC(=O)[C@H](CCCNC(=N)N)NC(=O)[C@H](CCC(N)=O)NC(=O)[C@@H](NC(=O)[C@H](C)NC(=O)[C@@H]1CSSC[C@H](NC(=O)[C@H](CCCCN)NC(=O)CC[C@H](NC(=O)CCCCCCCCCCCCCCCCCCC(=O)O)C(=O)O)C(=O)N[C@@H](CC(N)=O)C(=O)N[C@@H]([C@@H](C)O)C(=O)N[C@@H](C)C(=O)N[C@@H]([C@@H](C)O)C(=O)N1)[C@@H](C)O)C(=O)N[C@@H](CC(C)C)C(=O)N1CCC[C@H]1C(=O)N1CCC[C@H]1C(=O)N[C@H](C(=O)N[C@@H](CC(N)=O)C(=O)N[C@H](C(=O)NCC(=O)N[C@@H](CO)C(=O)N[C@@H](CC(N)=O)C(=O)N[C@H](C(=O)N1CCC[C@H]1C(N)=O)[C@@H](C)O)C(C)C)[C@@H](C)O, disulfide and C-terminal amide as told for human amylin and the amide resins of the synthesis; also called compound 4) | 60 | 1.2 | 0.321
{C20 diacid-γGlu}-KCNTATCATQRLAEFLRHSSPNFGAPLSSTNVGSNTP-NH2 (disulfide 2-7; SMILES CC(C)C[C@H](NC(=O)[C@H](CCCNC(=N)N)NC(=O)[C@H](CCC(N)=O)NC(=O)[C@@H](NC(=O)[C@H](C)NC(=O)[C@@H]1CSSC[C@H](NC(=O)[C@H](CCCCN)NC(=O)CC[C@H](NC(=O)CCCCCCCCCCCCCCCCCCC(=O)O)C(=O)O)C(=O)N[C@@H](CC(N)=O)C(=O)N[C@@H]([C@@H](C)O)C(=O)N[C@@H](C)C(=O)N[C@@H]([C@@H](C)O)C(=O)N1)[C@@H](C)O)C(=O)N[C@@H](C)C(=O)N[C@@H](CCC(=O)O)C(=O)N[C@@H](Cc1ccccc1)C(=O)N[C@@H](CC(C)C)C(=O)N[C@@H](CCCNC(=N)N)C(=O)N[C@@H](Cc1c[nH]cn1)C(=O)N[C@@H](CO)C(=O)N[C@@H](CO)C(=O)N1CCC[C@H]1C(=O)N[C@@H](CC(N)=O)C(=O)N[C@@H](Cc1ccccc1)C(=O)NCC(=O)N[C@@H](C)C(=O)N1CCC[C@H]1C(=O)N[C@@H](CC(C)C)C(=O)N[C@@H](CO)C(=O)N[C@@H](CO)C(=O)N[C@H](C(=O)N[C@@H](CC(N)=O)C(=O)N[C@H](C(=O)NCC(=O)N[C@@H](CO)C(=O)N[C@@H](CC(N)=O)C(=O)N[C@H](C(=O)N1CCC[C@H]1C(N)=O)[C@@H](C)O)C(C)C)[C@@H](C)O, also called compound 5) | 162 | 1 | 0.374
{C20 diacid-γGlu}-KCNTATCATQRLAEFLRHSSPNFGAILPSTNVGSETY-NH2 (disulfide 2-7, also called compound 33) | 243 | 2.2 | 0.915
